# Measurements from publication PMC3903622, “Kinetics of Phosphomevalonate Kinase from Saccharomyces cerevisiae” (PLoS ONE, 2014).
# Assays:
# purified protein [1] = substrate: C[C@@](O)(CCOP(=O)(O)O)CC(=O)O; experiment: purified protein; format: biochemical, Saccharomyces cerevisiae; conditions: co-substrate ATP (0.1–8.0 mM range), 10 mM MgCl2, 100 mM KCl, 200 mM Tris pH 7.2, 30°C
# purified protein [2] = substrate: Nc1ncnc2c1ncn2[C@@H]1O[C@H](COP(=O)(O)OP(=O)(O)OP(=O)(O)O)[C@@H](O)[C@H]1O; experiment: purified protein; format: biochemical, Saccharomyces cerevisiae; conditions: co-substrate mevalonate-5-phosphate (0.2–10.0 mM range), 10 mM MgCl2, 100 mM KCl, 200 mM Tris pH 7.2, 30°C
protein,measurement,setting,value
"phosphomevalonate kinase (PMK) from S. cerevisiae; PMK-His (Saccharomyces cerevisiae S288C) (protein, E. coli codon-optimized gene in pET-52b+, C-terminal 6xHis tag (removal not mentioned), expressed in E. coli BL21(DE3), Ni-NTA purified) MSELRAFSAPGKALLAGGYLVLDTKYEAFVVGLSARMHAVAHPYGSLQGSDKFEVRVKSKQFKDGEWLYHISPKSGFIPVSIGGSKNPFIEKVIANVFSYFKPNMDDYCNRNLFVIDIFSDDAYHSQEDSVTEHRGNRRLSFHSHRIEEVPKTGLGSSAGLVTVLTTALASFFVSDLENNVDKYREVIHNLAQVAHCQAQGKIGSGFDVAAAAYGSIRYRRFPPALISNLPDIGSATYGSKLAHLVDEEDWNITIKSNHLPSGLTLWMGDIKNGSETVKLVQKVKNWYDSHMPESLKIYTELDHANSRFMDGLSKLDRLHETHDDYSDQIFESLERNDCTCQKYPEITEVRDAVATIRRSFRKITKESGADIEPPVQTSLLDDCQTLKGVLTCLIPGAGGYDAIAVITKQDVDLRAQTANDKRFSKVQWLDVTQADWGVRKEKDPETYLDK",Km,purified protein [1],885 µM
same,Km,purified protein [2],98.3 µM
